# According to IntAct's records for PubMed 25910212:
# B1: Cyclin-dependent kinase 4 (Homo sapiens), P11802 (parent)
# chain: MATSRYEPVAEIGVGAYGTVYKARDPHSGHFVALKSVRVPNGGGGGGGLPISTVREVALLRRLEAFEHPNVVRLMDVCATSRTDREIKVTLVFEHVDQDLRTYLDKAPPPGLPAETIKDLMRQFLRGLDFLHANCIVHRDLKPENILVTSGGTVKLADFGLARIYSYQMALTPVVVTLWYRAPEVLLQSTYATPVDMWSVGCIFAEMFRRKPLFCGNSEADQLGKIFDLIGLPPEDDWPRDVSLPRGAFPPRGPRPVQSVVPEMEESGAQLLLEMLTFNPHKRISAFRALQHSYLHKDEGNPE
# B2: Estrogen receptor beta (Homo sapiens), Q92731-3 (parent)
# chain: MDIKNSPSSLNSPSSYNCSQSILPLEHGSIYIPSSYVDSHHEYPAMTFYSPAVMNYSIPSNVTNLEGGPGRQTTSPNVLWPTPGHLSPLVVHRQLSHLYAEPQKSPWCEARSLEHTLPVNRETLKRKVSGNRCASPVTGPGSKRDAHFCAVCSDYASGYHYGVWSCEGCKAFFKRSIQGHNDYICPATNQCTIDKNRRKSCQACRLRKCYEVGMVKCGSRRERCGYRLVRRQRSADEQLHCAGKAKRSGGHAPRVRELLLDALSPEQLVLTLLEAEPPHVLISRPSAPFTEASMMMSLTKLADKELVHMISWAKKIPGMRGNA
# partner: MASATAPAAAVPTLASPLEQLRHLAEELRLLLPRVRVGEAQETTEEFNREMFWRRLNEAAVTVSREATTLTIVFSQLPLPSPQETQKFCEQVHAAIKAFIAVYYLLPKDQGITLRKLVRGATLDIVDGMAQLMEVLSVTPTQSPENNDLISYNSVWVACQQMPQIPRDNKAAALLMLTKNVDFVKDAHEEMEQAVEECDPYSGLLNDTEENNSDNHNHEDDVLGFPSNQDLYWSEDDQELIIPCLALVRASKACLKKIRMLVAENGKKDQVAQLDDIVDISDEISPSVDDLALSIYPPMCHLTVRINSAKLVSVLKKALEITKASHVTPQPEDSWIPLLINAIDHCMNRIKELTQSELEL
# B3: Keratin, type II cytoskeletal 1 (Homo sapiens), P04264 (parent)
# chain: MSRQFSSRSGYRSGGGFSSGSAGIINYQRRTTSSSTRRSGGGGGRFSSCGGGGGSFGAGGGFGSRSLVNLGGSKSISISVARGGGRGSGFGGGYGGGGFGGGGFGGGGFGGGGIGGGGFGGFGSGGGGFGGGGFGGGGYGGGYGPVCPPGGIQEVTINQSLLQPLNVEIDPEIQKVKSREREQIKSLNNQFASFIDKVRFLEQQNQVLQTKWELLQQVDTSTRTHNLEPYFESFINNLRRRVDQLKSDQSRLDSELKNMQDMVEDYRNKYEDEINKRTNAENEFVTIKKDVDGAYMTKVDLQAKLDNLQQEIDFLTALYQAELSQMQTQISETNVILSMDNNRSLDLDSIIAEVKAQYEDIAQKSKAEAESLYQSKYEELQITAGRHGDSVRNSKIEISELNRVIQRLRSEIDNVKKQISNLQQSISDAEQRGENALKDAKNKLNDLEDALQQAKEDLARLLRDYQELMNTKLALDLEIATYRTLLEGEESRMSGECAPNVSVSVSTSHTTISGGGSRGGGGGGYGSGGSSYGSGGGSYGSGGGGGGGRGSYGSGGSSYGSGGGSYGSGGGGGGHGSYGSGSSSGGYRGGSGGGGGGSSGGRGSGGGSSGGSIGGRGSSSGGVKSSGGSSSVKFVSTTYSGVTR
# B4: Keratin, type II cytoskeletal 6A (Homo sapiens), P02538 (parent)
# chain: MASTSTTIRSHSSSRRGFSANSARLPGVSRSGFSSVSVSRSRGSGGLGGACGGAGFGSRSLYGLGGSKRISIGGGSCAISGGYGSRAGGSYGFGGAGSGFGFGGGAGIGFGLGGGAGLAGGFGGPGFPVCPPGGIQEVTVNQSLLTPLNLQIDPTIQRVRAEEREQIKTLNNKFASFIDKVRFLEQQNKVLETKWTLLQEQGTKTVRQNLEPLFEQYINNLRRQLDSIVGERGRLDSELRGMQDLVEDFKNKYEDEINKRTAAENEFVTLKKDVDAAYMNKVELQAKADTLTDEINFLRALYDAELSQMQTHISDTSVVLSMDNNRNLDLDSIIAEVKAQYEEIAQRSRAEAESWYQTKYEELQVTAGRHGDDLRNTKQEIAEINRMIQRLRSEIDHVKKQCANLQAAIADAEQRGEMALKDAKNKLEGLEDALQKAKQDLARLLKEYQELMNVKLALDVEIATYRKLLEGEECRLNGEGVGQVNISVVQSTVSSGYGGASGVGSGLGLGGGSSYSYGSGLGVGGGFSSSSGRAIGGGLSSVGGGSSTIKYTTTSSSSRKSYKH
# Variants of: B1
# Conditions: with ccnd1_human CCND1, P24385
# Chain of ccnd1_human CCND1, P24385 (P24385 whole entry): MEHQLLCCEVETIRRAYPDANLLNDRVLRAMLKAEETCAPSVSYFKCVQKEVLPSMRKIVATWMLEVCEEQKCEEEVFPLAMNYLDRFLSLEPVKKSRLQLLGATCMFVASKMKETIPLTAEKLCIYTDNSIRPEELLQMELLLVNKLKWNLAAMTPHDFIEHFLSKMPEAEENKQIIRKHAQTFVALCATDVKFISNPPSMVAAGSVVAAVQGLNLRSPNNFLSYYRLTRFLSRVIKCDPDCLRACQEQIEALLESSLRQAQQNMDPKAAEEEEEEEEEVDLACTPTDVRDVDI
row,effect of a mutation on the interaction,Variant
1,with no effect,N41S
2,with no effect,S52N
3,with no effect,R24H
4,with no effect,R24C

# Variants of: B1
# Conditions: with ccnd3_human CCND3, P30281
# Chain of ccnd3_human CCND3, P30281 (P30281 whole entry): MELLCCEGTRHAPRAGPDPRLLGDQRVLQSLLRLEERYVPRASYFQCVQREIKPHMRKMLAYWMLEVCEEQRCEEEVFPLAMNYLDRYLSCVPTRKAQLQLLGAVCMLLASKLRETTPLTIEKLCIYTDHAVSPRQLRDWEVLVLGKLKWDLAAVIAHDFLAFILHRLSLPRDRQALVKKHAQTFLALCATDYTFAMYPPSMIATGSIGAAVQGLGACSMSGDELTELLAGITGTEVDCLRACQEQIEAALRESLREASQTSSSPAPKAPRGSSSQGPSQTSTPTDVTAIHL
row,effect of a mutation on the interaction,Variant
1,with no effect,N41S
2,with no effect,S52N
3,with no effect,R24H
4,with no effect,R24C

# Variants of: B1
# Conditions: with ccnd2_human CCND2, P30279
# Chain of ccnd2_human CCND2, P30279 (P30279 whole entry): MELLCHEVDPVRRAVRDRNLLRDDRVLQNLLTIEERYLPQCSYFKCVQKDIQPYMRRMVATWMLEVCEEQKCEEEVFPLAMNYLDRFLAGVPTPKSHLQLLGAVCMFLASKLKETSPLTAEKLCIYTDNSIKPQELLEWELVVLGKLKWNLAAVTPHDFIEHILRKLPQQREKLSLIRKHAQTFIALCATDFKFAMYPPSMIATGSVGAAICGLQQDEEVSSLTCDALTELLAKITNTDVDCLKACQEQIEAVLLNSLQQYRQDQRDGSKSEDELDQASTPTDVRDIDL
row,effect of a mutation on the interaction,Variant
1,with no effect,N41S
2,with no effect,S52N
3,with no effect,R24H
4,with no effect,R24C

# Variants of: B1
# Conditions: with cdn2b_human CDKN2B
row,effect of a mutation on the interaction,Variant
1,with no effect,N41S
2,with no effect,S52N
3,with no effect,R24H
4,with no effect,R24C

# Variants of: B1
# Conditions: with cdn2c_human CDKN2C
row,effect of a mutation on the interaction,Variant
1,with no effect,N41S
2,with no effect,S52N
3,disrupting interaction strength,R24H
4,disrupting interaction strength,R24C

# Variants of: B1
# Conditions: with cdn2b_human CDKN2B
# Remark: another data set of the same source
row,effect of a mutation on the interaction,Variant
1,disrupting interaction strength,R24H

# Variants of: B1
# Conditions: with ccnd2_human CCND2, P30279
# Remark: another data set of the same source
row,effect of a mutation on the interaction,Variant
1,disrupting interaction strength,R24C

# Variants of: B2
# Conditions: with ccdb1_human CCNDBP1, O95273
row,effect of a mutation on the interaction,Variant
1,causing an interaction,F289L

# Variants of: B3
# Conditions: with nup62_human NUP62, P37198
# Chain of nup62_human NUP62, P37198 (P37198 whole entry): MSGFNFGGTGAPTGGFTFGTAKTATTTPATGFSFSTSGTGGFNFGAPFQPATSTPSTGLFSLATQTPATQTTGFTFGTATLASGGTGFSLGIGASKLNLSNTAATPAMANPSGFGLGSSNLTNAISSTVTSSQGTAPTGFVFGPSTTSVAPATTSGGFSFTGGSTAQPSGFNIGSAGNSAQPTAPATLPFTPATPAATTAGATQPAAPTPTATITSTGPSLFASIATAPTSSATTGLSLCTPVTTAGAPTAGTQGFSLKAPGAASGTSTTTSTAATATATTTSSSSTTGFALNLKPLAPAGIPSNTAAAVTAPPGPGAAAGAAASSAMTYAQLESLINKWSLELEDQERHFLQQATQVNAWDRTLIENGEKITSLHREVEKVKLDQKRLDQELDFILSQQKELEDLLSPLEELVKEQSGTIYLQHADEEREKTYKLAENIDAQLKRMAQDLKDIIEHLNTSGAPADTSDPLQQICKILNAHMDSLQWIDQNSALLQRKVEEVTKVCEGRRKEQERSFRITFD
row,effect of a mutation on the interaction,Variant
1,causing an interaction,L161P

# Variants of: B3
# Conditions: with KRT15, P19012
# Target sequence in this assay (P19012 whole entry): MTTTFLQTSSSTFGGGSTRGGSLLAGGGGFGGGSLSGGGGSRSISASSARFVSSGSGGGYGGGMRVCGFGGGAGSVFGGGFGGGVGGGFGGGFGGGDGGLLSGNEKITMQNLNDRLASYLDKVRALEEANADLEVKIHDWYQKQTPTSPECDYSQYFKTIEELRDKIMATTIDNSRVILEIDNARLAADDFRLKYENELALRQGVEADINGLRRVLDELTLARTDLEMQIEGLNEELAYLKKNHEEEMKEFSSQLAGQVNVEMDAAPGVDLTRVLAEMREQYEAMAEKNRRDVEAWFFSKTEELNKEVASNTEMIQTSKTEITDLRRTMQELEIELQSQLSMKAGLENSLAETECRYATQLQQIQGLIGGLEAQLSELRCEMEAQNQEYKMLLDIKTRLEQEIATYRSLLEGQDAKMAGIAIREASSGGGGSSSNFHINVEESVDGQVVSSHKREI
row,effect of a mutation on the interaction,Variant
1,causing an interaction,L161P

# Variants of: B3
# Conditions: with kt33b_human KRT33B
row,effect of a mutation on the interaction,Variant
1,causing an interaction,L161P

# Variants of: B3
# Conditions: with goga2_human GOLGA2, Q08379
# Target sequence in this assay (Q08379 whole entry): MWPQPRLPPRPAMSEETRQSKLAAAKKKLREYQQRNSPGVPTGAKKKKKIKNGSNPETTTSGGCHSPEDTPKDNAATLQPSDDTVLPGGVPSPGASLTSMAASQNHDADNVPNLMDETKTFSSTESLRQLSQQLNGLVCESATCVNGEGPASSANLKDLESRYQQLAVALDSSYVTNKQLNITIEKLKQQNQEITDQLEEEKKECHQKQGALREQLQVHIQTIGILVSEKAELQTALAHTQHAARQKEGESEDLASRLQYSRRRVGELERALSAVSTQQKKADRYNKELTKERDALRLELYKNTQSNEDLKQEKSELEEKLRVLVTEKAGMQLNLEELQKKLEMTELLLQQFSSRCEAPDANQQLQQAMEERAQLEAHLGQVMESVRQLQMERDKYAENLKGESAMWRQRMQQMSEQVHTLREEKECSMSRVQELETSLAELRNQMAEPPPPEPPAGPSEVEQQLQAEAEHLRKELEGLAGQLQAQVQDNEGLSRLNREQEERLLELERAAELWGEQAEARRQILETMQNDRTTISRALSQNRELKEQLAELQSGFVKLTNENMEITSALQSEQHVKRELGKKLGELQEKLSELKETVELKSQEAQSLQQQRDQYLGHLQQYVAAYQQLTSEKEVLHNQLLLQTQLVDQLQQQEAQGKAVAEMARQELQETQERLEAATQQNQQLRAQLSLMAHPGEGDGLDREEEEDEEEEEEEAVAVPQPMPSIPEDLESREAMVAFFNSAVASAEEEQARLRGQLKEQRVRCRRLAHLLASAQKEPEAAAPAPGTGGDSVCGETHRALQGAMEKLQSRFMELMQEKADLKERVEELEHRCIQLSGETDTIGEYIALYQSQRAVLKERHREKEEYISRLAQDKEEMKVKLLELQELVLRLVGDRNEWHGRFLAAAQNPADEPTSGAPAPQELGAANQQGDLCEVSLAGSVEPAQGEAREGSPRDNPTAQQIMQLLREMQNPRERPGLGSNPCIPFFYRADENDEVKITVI
row,effect of a mutation on the interaction,Variant
1,causing an interaction,L161P

# Variants of: B3
# Conditions: with KRT15, P19012
# Remark: another data set of the same source
# Target sequence in this assay (P19012 whole entry): as the sequence (P19012 whole entry) above
row,effect of a mutation on the interaction,Variant
1,with no effect,L161P

# Variants of: B3
# Conditions: with kt33b_human KRT33B
# Remark: another data set of the same source
row,effect of a mutation on the interaction,Variant
1,with no effect,L161P

# Variants of: B4
# Conditions: with KRT15, P19012
# Target sequence in this assay (P19012 whole entry): as above
row,effect of a mutation on the interaction,Variant
1,with no effect,I462S
2,with no effect,A463P
3,with no effect,F174V

# Variants of: B4
# Conditions: with KRT40, Q6A162
# Chain of KRT40, Q6A162 (Q6A162 whole entry): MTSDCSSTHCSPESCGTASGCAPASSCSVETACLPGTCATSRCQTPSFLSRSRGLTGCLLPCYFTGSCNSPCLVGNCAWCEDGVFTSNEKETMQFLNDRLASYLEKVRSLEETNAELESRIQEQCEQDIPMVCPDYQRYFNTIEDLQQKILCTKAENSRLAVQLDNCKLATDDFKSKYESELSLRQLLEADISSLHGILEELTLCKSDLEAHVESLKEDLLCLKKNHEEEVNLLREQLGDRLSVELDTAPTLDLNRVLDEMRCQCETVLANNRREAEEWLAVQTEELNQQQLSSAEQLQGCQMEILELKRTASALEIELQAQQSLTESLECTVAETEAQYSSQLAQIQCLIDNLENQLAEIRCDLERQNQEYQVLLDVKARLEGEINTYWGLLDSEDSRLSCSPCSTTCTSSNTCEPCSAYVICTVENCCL
row,effect of a mutation on the interaction,Variant
1,with no effect,I462S
2,with no effect,A463P
3,with no effect,F174V

# Variants of: B4
# Conditions: with k1h1_human KRT31, Q15323
# Chain of k1h1_human KRT31, Q15323 (Q15323 whole entry): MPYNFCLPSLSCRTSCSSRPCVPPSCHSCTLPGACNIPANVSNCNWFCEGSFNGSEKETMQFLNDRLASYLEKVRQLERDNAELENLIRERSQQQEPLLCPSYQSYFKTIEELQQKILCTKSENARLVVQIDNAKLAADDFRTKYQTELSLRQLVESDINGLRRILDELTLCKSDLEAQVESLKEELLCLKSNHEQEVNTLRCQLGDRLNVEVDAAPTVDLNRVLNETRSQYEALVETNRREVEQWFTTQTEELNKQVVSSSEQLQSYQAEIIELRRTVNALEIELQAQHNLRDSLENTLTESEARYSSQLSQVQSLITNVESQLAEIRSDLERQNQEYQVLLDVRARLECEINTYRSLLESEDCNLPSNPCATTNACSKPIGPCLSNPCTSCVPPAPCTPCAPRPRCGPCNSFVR
row,effect of a mutation on the interaction,Variant
1,with no effect,I462S
2,with no effect,A463P
3,with no effect,F174V

# Variants of: B4
# Conditions: with tfp11_human TFIP11, Q9UBB9
# Chain of tfp11_human TFIP11, Q9UBB9 (Q9UBB9 whole entry): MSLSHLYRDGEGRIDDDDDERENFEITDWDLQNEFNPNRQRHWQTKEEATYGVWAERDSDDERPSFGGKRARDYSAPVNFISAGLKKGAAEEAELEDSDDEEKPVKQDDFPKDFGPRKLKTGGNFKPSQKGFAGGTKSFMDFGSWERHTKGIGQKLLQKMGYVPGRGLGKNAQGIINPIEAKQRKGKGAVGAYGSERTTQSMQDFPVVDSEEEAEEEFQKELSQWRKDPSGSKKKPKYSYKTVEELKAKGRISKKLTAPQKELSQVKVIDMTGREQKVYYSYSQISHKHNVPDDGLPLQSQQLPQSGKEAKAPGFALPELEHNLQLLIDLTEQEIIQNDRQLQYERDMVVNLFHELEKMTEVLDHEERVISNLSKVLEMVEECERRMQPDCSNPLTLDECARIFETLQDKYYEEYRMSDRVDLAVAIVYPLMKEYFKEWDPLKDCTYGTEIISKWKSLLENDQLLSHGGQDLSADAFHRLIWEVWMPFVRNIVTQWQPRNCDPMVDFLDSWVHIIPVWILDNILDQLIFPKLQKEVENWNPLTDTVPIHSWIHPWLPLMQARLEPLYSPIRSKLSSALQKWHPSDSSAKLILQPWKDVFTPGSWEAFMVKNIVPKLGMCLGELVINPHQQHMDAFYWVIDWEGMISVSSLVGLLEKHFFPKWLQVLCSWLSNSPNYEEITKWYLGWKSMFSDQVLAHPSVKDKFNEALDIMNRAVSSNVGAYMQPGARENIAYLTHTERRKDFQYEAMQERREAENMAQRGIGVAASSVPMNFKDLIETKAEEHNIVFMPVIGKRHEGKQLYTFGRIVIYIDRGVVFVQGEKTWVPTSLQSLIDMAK
row,effect of a mutation on the interaction,Variant
1,with no effect,I462S
2,disrupting interaction strength,A463P
3,with no effect,F174V

# Variants of: B4
# Conditions: with KRT40, Q6A162
# Remark: another data set of the same source
row,effect of a mutation on the interaction,Variant
1,disrupting interaction strength,I462S
2,disrupting interaction strength,A463P

# Variants of: B4
# Conditions: with tfp11_human TFIP11, Q9UBB9
# Remark: another data set of the same source
row,effect of a mutation on the interaction,Variant
1,disrupting interaction strength,I462S

# Variants of: B4
# Conditions: with goga2_human GOLGA2, Q08379
# Target sequence in this assay (Q08379 whole entry): as the sequence (Q08379 whole entry) above
row,effect of a mutation on the interaction,Variant
1,with no effect,I462S
2,with no effect,A463P
3,with no effect,F174V
